Laboratory results from patent publication US20260144882A1 (BIO THERA SOLUTIONS, published 2026).
Positions count from the first letter of the chain named.

Target: T1, human Nectin-4 extracellular antigen hNectin-4-His (human, UniProt Q96NY8 32-349)
T1 construct: C-terminal 8xHis tag included
T1 sequence: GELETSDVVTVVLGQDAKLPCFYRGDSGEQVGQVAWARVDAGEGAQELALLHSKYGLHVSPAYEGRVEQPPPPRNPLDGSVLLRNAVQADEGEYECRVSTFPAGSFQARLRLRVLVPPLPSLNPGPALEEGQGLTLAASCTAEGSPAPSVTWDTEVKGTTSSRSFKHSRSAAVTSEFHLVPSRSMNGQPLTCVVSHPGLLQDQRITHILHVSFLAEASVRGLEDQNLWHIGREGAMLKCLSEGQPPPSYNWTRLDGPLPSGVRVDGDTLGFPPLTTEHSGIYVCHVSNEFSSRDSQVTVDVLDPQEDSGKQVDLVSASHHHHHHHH
Assay: ELISA, phage scFv supernatant 1:50
Experimental: The supernatants were diluted 50-fold, and the binding OD values of the diluted supernatants to hNectin-4-His were measured by ELISA. The samples were serially 3-fold diluted, and the EC₅₀ titer for the binding of the supernatants to the antigen was measured by ELISA. […] The light chain variable region sequence is set forth in SEQ ID NO: 25. The OD value is the measurement of ELISA, and the EC₅₀ value denotes the EC₅₀ value of the binding activity titer of the supernatant to the antigen.

B1: 1F3-1G5 scFv (scFv, V domains shown)
VH: EVQLVESGGGLVQPGGSLRLSCAASGFSFGSYGMSWVRQAPGKGLEWVSGIKPSTSTTYYADSVKGRFTISRDNSKNTLYLQMNSLRAEDTAVYYCARAELLAFDVYTASDYWGQGTLVTVSS
VL: DIQMTQSPSSLSASVGDRVTITCRASQGISSYLAWYQQKPGKAPKLLIYAASSLQSGVPSRFSGSGSGTDFTLTISSLQPEDFATYYCQQHYTTPPTFGQGTKVEIKR
notes: phage clone supernatant
OD value: 1.56 OD

B2: 1F3-2E8 scFv (scFv, V domains shown)
VH: B1 VH with F27Y, G30S, S31D, G50W, K52S, T55K, S56G, T57S, T58A, Y59S
VL: B1 VL
notes: phage clone supernatant
OD value: 1.56 OD

B3: 1F3-1H3 scFv (scFv, V domains shown)
VH: B1 VH with S28N, G30Y, S31N, S54H, T55S, S56D, T57V, T58A, Y59H
VL: B1 VL
notes: phage clone supernatant
OD value: 1.73 OD

B4: 1F3-2D2 scFv (scFv, V domains shown)
VH: B1 VH with S28N, G30S, G50R, K52S, S54Y, S56G, Y59H
VL: B1 VL
notes: phage clone supernatant
OD value: 1.59 OD

B5: 1F3-1D6 scFv (scFv, V domains shown)
VH: EVQLVESGGGLVQPGGSLRLSCAASGGSFYGFGMSWVRQAPGKGLEWVSGIYSHDADKRYADSVKGRFTISRDNSKNTLYLQMNSLRAEDTAVYYCARAELLAFDVYTASDYWGQGTLVTVSS
VL: B1 VL
notes: phage clone supernatant
OD value: 1.44 OD

B6: 1F3-1G7 scFv (scFv, V domains shown)
VH: EVQLVESGGGLVQPGGSLRLSCAASGDIFSNYSMSWVRQAPGKGLEWVSGIYPSGDSRRYADSVKGRFTISRDNSKNTLYLQMNSLRAEDTAVYYCARAELLAFDVYTASDYWGQGTLVTVSS
VL: B1 VL
notes: phage clone supernatant
OD value: 1.56 OD

B7: 1F3-1F4 scFv (scFv, V domains shown)
VH: B6 VH with S30T, N31G, Y32S, P53A, D56S, S57D, R58K
VL: B1 VL
notes: phage clone supernatant
OD value: 1.42 OD

B8: 1F3-1C11 scFv (scFv, V domains shown)
VH: B1 VH with S28N, G30S, G50A, K52S, P53G, T55G, S56G, T57S
VL: B1 VL
notes: phage clone supernatant
OD value: 1.63 OD

B9: 1F3-1B1 scFv (scFv, V domains shown)
VH: B1 VH with S28T, S31T, S54G, T55D
VL: B1 VL
notes: phage clone supernatant
OD value: 1.65 OD

B10: 1F3-2B9 scFv (scFv, V domains shown)
VH: B1 VH with S28N, G30D, G33A, S54H, S56D, T57D, T58I
VL: B1 VL
notes: phage clone supernatant
OD value: 1.57 OD

B11: 1F3-1A9 scFv (scFv, V domains shown)
VH: EVQLVESGGGLVQPGGSLRLSCAASGYSFDNYAMSWVRQAPGKGLEWVSRISPTGGYASYADSVKGRFTISRDNSKNTLYLQMNSLRAEDTAVYYCARAELLAFDVYTASDYWGQGTLVTVSS
VL: B1 VL
notes: phage clone supernatant
OD value: 1.64 OD

B12: 1F3-2A11 scFv (scFv, V domains shown)
VH: EVQLVESGGGLVQPGGSLRLSCAASGDNFYTFYMSWVRQAPGKGLEWVSGIKPTGSYINYADSVKGRFTISRDNSKNTLYLQMNSLRAEDTAVYYCARAELLAFDVYTASDYWGQGTLVTVSS
VL: B1 VL
notes: phage clone supernatant
OD value: 1.52 OD

B13: 1F3-1G11 scFv (scFv, V domains shown)
VH: B1 VH with F27Y, G30T, S31G, K52S, T55G, S56G, T58I, Y59G
VL: B1 VL
notes: phage clone supernatant
OD value: 1.65 OD

B14: 1F3-2B2 scFv (scFv, V domains shown)
VH: B11 VH with S28N, D30Y, N31S, A33G, R50I, T54D, A58K, S59R
VL: B1 VL
notes: phage clone supernatant
OD value: 1.57 OD

B15: 1F3-2B1 scFv (scFv, V domains shown)
VH: B1 VH with F27Y, S28N, G30D, S31N, G33A, S54D, T55S, S56A
VL: B1 VL
notes: phage clone supernatant
OD value: 1.62 OD

B16: 1F3-2B2-2 scFv (scFv, V domains shown)
VH: B11 VH with D30S, N31D, Y32F, A33G, S52D, T54S, G56W, Y57S, A58T
VL: B1 VL
notes: phage clone supernatant
OD value: 1.59 OD

B17: 1F3-1E10 scFv (scFv, V domains shown)
VH: B1 VH with S28N, G30S, G50R, K52S, S54Y, S56D, T57N, T58K
VL: B1 VL
notes: phage clone supernatant
OD value: 1.54 OD

B18: 1F3-1E9 scFv (scFv, V domains shown)
VH: B1 VH with S28T, G30D, S31D, G33A, T55S, S56W
VL: B1 VL
notes: phage clone supernatant
OD value: 1.55 OD

B19: 1F3-1F8 scFv (scFv, V domains shown)
VH: B12 VH with D27F, Y30G, T31N, F32Y, Y33G, G50R, K52S, P53G, T54D, Y57N
VL: B1 VL
notes: phage clone supernatant
OD value: 1.67 OD

B20: 1F3-1G2 scFv (scFv, V domains shown)
VH: B6 VH with D27Y, I28T, S30G, N31D, S33G, G50R, Y52D, S54W, D56A, R58I
VL: B1 VL
notes: phage clone supernatant
OD value: 1.6 OD

B21: 1F3-1D12 scFv (scFv, V domains shown)
VH: B6 VH with D27Y, I28N, S30T, N31D, S33G, Y52S, P53G, S57N, R58K, R59Y
VL: B1 VL
notes: phage clone supernatant
OD value: 1.63 OD

B22: 1F3-2C6 scFv (scFv, V domains shown)
VH: B6 VH with S30T, P53A, D56S, S57D, R58K
VL: B1 VL
notes: phage clone supernatant
OD value: 1.38 OD

B23: 1F3-1E1 scFv (scFv, V domains shown)
VH: B1 VH with G30D, S31D, G33A, G50I, K52Y, S54T, T55G, T58N
VL: B1 VL
notes: phage clone supernatant
OD value: 1.64 OD

B24: 1F3-1H11 scFv (scFv, V domains shown)
VH: EVQLVESGGGLVQPGGSLRLSCAASGFNFTDYGMSWVRQAPGKGLEWVSRISQWGDTSNYADSVKGRFTISRDNSKNTLYLQMNSLRAEDTAVYYCARAELLAFDVYTASDYWGQGTLVTVSS
VL: B1 VL
notes: phage clone supernatant
OD value: 1.65 OD

B25: 1F3-2E12 scFv (scFv, V domains shown)
VH: B1 VH with F27G, S28N, G30T, S31N, Y32S, P53W, T55S, S56D, T57E
VL: B1 VL
notes: phage clone supernatant
OD value: 1.52 OD

B26: 1F3-1E4 scFv (scFv, V domains shown)
VH: B24 VH with N28S, T30G, D31T, Q53G, W54D, G55S, D56A, T57N, S58I, N59R
VL: B1 VL
notes: phage clone supernatant
OD value: 1.61 OD

B27: 1F3-2A12 scFv (scFv, V domains shown)
VH: B1 VH with F27Y, G30D, S54T, T55G, S56A, T57S
VL: B1 VL
notes: phage clone supernatant
OD value: 1.65 OD

B28: 1F3-1C4 scFv (scFv, V domains shown)
VH: B1 VH with S28T, S31D, S54W, T55G, T57G
VL: B1 VL
notes: phage clone supernatant
OD value: 1.59 OD

B29: 1F3-2C9 scFv (scFv, V domains shown)
VH: B24 VH with T30G, D31G, Q53P, W54G, G55D, D56S, S58P, N59R
VL: B1 VL
notes: phage clone supernatant
OD value: 1.59 OD

B30: 1F3-2D8 scFv (scFv, V domains shown)
VH: B11 VH with D30S, N31D, A33G, T54S, G55K, G56A, Y57V, A58K, S59D
VL: B1 VL
notes: phage clone supernatant
OD value: 1.56 OD

B31: 1F3-1D1 scFv (scFv, V domains shown)
VH: B6 VH with S30T, S57N, R58N
VL: B1 VL
notes: phage clone supernatant
OD value: 1.29 OD
